Results reported in PMC10234869.

Columns and labels:
[1] = target: Signal Peptide Peptidase-like 2c, C-terminally myc-tagged (SPPL2c-myc) (murine) (UniProt A2A6C4)
[2] = target: Frey1 CD74-Lum (Frey1-3xFLAG with its luminal domain replaced by the first 70 aa of the luminal segment of CD74) (murine) (UniProt Q8CF31); test: co-IP; anti-FLAG M2 and Protein G agarose from 0.5% CHAPSO lysates (1 mg in 500 µl, overnight, 4 °C) of transiently transfected HEK293T cells; four washes with CHAPSO buffer; eluates blotted; co-precipitated SPPL2c divided by the precipitated Frey1 or PLN variant and normalised to wild-type Frey1

## PLN PRSAG (3xFLAG-PLN with the Frey1 residues P11, R12, S16, A25 and G26 at the corresponding positions of its membrane anchor) (from UniProt P61014 1-52)
[1]
  inhibition of SPPL2c-mediated processing of HA-RAMP4-2 in HEK cells (Fig. 4H, I): 50%

B1: Signal Peptide Peptidase-like 2c, C-terminally myc-tagged (SPPL2c-myc) (enzyme)
chain: EYGLVRVVSKNWSKDYCVLYSSDYVNLPRDLHHAPLLSLHDGTKTPWCPDEDSFHQAQDSSPRQRPLHQTTTMVTRGNCSFYAKGWLAQDQGAQGLLIVSRARNQQCSDTISKPQDPSKPWPALTIPVAVLRYTDMLDIVSHTYGDTDVRVAMFAPLEPVTDYNMAIIFILAVGTVAAGGYWAGLMEANKLQRRQAQRGGGLGGHNQQQTVAAERSQRAWEDDDFEDAPMDFTPAMTGAVVTMSCSIMILLYFFYDCFVYVMIGIFSLGASTGLYSCLAPILCHLPLWRYQWVLPGQRVSVTWPLLLLAGLCAMVTVLWVIHRNEDHWAWLLQDTLGVAYCLFVLRRVRLPTFKNCTLFLLALLAFDVFFVFITPLFTKTGESIMVEVASGPADSSSHERLPMVLKVPRLSFSALTLCNQPFSILGFGDIVVPGFLVAYCHRFDMQVQSRQVYYMACTVAYAVGLLVTFVAMILMQMGQPALLYLVSSTLLTSLAVATCRQEFTLFWTGQGRAKIPAEPVAQPCIASAVGSKMKLEDAKDSRTTNRFEQAVDGESGDLESSTGDDMAEMVTLSEDEATSPEGHSESSEGWSDTNLDPNELPSGSPMALEAMLIPLIQPIPHPSELGHIRTQSRVHDSSLPWMGLHKRKGLKVKKSMSAQAPL
[2]
  co-precipitated SPPL2c, percent of wild-type Frey1, normalised to the expression level: 20%
